In patent US20230002798A1, “PROCESS FOR THE PREPARATION OF A FERMENTABLE SUGAR COMPOSITION AND THE FERMENTATION THEREOF” (WeissBioTech GmbH, priority 2019, published 2023):

B1: Agl1: oligo-1,6-glucosidase of Bifidobacterium breve UCC2003, amino acid sequence SEQ ID NO:1, expressed in Bacillus subtilis (protein)
chain: MMTTFNRAIIPDAIRTNGATPNPWWSNAVVYQIYPRSFQDTNGDGFGDLKGITSRLDYLADLGVDVLWLSPVYKSPQDDNGYDISDYQDIDPLFGTLDDMDELLAEAHKRGLKVVMDLVVNHTSDEHAWFEASKNKDDEHADWYWWRPARPGTTPGEPGSEPNQWGSYFGGSAWEYCPERGEYYLHQFSKKQPDLNWENPAVRRAVYDMMNWWLDRGIDGFRMDVITLISKRTDANGRLPGEYGSELDDLPVGEEGYSNPNPFCADGPRQDEFLKEMRREVFAGREGFLTVGEAPGITPVRNEHITNPANGELDMLFLFDHVDFDCDGVKWKPLPLDLPGFKRIMAGYQTAVENVGWASLFTGNHDQPRVVSRWGDDSSEESRVRSAKALGLMLHMHRGTPYVYQGEELGMTNAHFTSLDQYRDLESLNAYRQRVEEAKVQSPESMLAGIAARGRDNSRTPMQWDGSAYAGFTAPDAATEPWISVNPNHAEINAAGEFDDPDSVYAFYKKLIALRHNSSIVAAGEWQLIDADDAHVYAFTRTLGNERLLVVVNLSGRTVDLPRESTELIAGGVTEPDIILSTYDAPHTVVSLANRELDPWEAAAVQL
modifications: Bifidobacterium breve UCC2003; ACM89182.1 alpha-glucosidase 1
B2: Gth: oligo-1,6-glucosidase of Parageobacillus thermoglucosidasius, amino acid sequence SEQ ID NO:2, expressed in Bacillus subtilis (protein, listed as Parageobacillus thermoglucosidasius)
chain: MERVWWKEAVVYQIYPRSFYDSNGDGIGDIRGIIAKLDYLKELGVDVVWLSPVYKSPNDDNGYDISDYRDIMDEFGTMADWKTMLEEMHKRGIKLVMDLVVNHTSDEHPWFIESRKSKDNPYRDYYIWRPGKNGKEPNNWESVFSGSAWEYDEMTGEYYLHLFSKKQPDLNWENPKVRREVYEMMKFWLDKGVDGFRMDVINMISKVPELPDGEPQSGKKYASGSRYYMNGPRVHEFLQEMNREVLSKYDIMTVGETPGVTPKEGILYTDPSRRELNMVFQFEHMDLDSGPGGKWDIRPWSLADLKKTMTKWQKELEGKGWNSLYLNNHDQPRAVSRFGDDGKYRVESAKMLATFLHMMQGTPYIYQGEEIGMTNVRFPSIEDYRDIETLNMYKERVEEYGEDPQEVMEKIYYKGRDNARTPMQWDDSENAGFTAGTPWIPVNPNYKEINVKAALEDPNSVFHYYKKLIQLRKQHDIIVYGTYDLILEDDPYIYAYTRTLGNEQLIVITNFSEKTPVFRLPDHIIYKTKELLISNYDVDEAEELKEIRLRPWEARVYKIRLP
modifications: WP_042386239.1 alpha-glucosidase

What was measured:
[1] = SSF of maltodextrins with added trehalose, 24 h (Example 1); parameters: species or system Yeast (Deltaferm® AL-18); conditions: SSF 24 h, maltodextrin + 20 g/L trehalose, enzyme 937.5 kU per ton
Method: (§1) Quantification of ethanol yield Ethanol was quantified via HPLC. Samples were taken at the end of the SSF or during SSF at set time points. Samples were centrifuged for 1 min at 17,000 xg and sterile filtered (0.2 μm). The samples were frozen at −80° C. prior to measurements. Ethanol was determined with an Aminex 87C column (Bio-Rad Laboratories, Inc., US) on a Shimadzu HPLC system.
(§2) For simultaneous saccharification and fermentation (abbreviated SSF), the oligo-1,6-glucosidases—either Agl1 or Gth—were used as crude Bacillus extract. Glucidex® Maltodextrin 12 (Roquette, FR) was dissolved in SSF-medium (5 g/L yeast extract, 5 g/L peptone, 1 g/L K2HIPO4, 0.5 g/L Mg2SO4 in 50 mM citrate buffer, pH 4.8) at 300 g/L. Panose, isomaltose, isomaltotriose, maltose, maltotriose, or trehalose was added at 20 g/L. As a positive control, 20 g/L glucose was added instead of the respective sugar. The SSF medium containing starch hydrolysate (maltodextrins) and sugars was sterile filtered (0.2 μm). Yeast (Deltaferm® AL-18, WeissBioTech GmbH, Ascheberg, Germany) was grown in YINaC medium (50 g/L dextrose, 5 g/L yeast extract, 5 g/L peptone, 1 g/L K2HPO4, 0.5 g/L Mg2SO4*7H2O, 2 g/L NH4Cl in 50 mM sodium citrate, pH 4.8) for 2 days at 37° C. and harvested by centrifugation for 15 min at 5100 rpm and 8° C. Pelleted yeast was added to the SSF-medium at a final concentration of 6 g/L. Glucoamylase (Deltazym® GA L-E5, WeissBioTech GmbH, Ascheberg, Germany) was added at 40 g per ton of dry starch equivalent. The enzyme product Agl1 or Gth was added up to a final concentration of 187.5 kU per ton of dry starch equivalent. For the SSF with trehalose, Agl1 or Gth was added at 937.5 kU per ton of dry starch equivalent. As a negative control, an SSF as described above was run without oligo-1,6-glucosidase/enzyme product. The SSF was performed at 30° C. without stirring or shaking for 24 h.

[2] = SSF of maltodextrins with added isomaltose, 24 h (Example 1); parameters: species or system Yeast (Deltaferm® AL-18); conditions: SSF 24 h, maltodextrin + 20 g/L isomaltose, enzyme 187.5 kU per ton
Method: as §1
For simultaneous saccharification and fermentation (abbreviated SSF), the oligo-1,6-glucosidases—either Agl1 or Gth—were used as crude Bacillus extract. Glucidex® Maltodextrin 12 (Roquette, FR) was dissolved in SSF-medium (5 g/L yeast extract, 5 g/L peptone, 1 g/L K2HIPO4, 0.5 g/L Mg2SO4 in 50 mM citrate buffer, pH 4.8) at 300 g/L. Panose, isomaltose, isomaltotriose, maltose, maltotriose, or trehalose was added at 20 g/L. As a positive control, 20 g/L glucose was added instead of the respective sugar. The SSF medium containing starch hydrolysate (maltodextrins) and sugars was sterile filtered (0.2 μm). Yeast (Deltaferm® AL-18, WeissBioTech GmbH, Ascheberg, Germany) was grown in YINaC medium (50 g/L dextrose, 5 g/L yeast extract, 5 g/L peptone, 1 g/L K2HPO4, 0.5 g/L Mg2SO4*7H2O, 2 g/L NH4Cl in 50 mM sodium citrate, pH 4.8) for 2 days at 37° C. and harvested by centrifugation for 15 min at 5100 rpm and 8° C. […]

[3] = SSF of maltodextrins with added isomaltotriose, 24 h (Example 1); parameters: species or system Yeast (Deltaferm® AL-18); conditions: SSF 24 h, maltodextrin + 20 g/L isomaltotriose, enzyme 187.5 kU per ton
Method: as §1, §2

[4] = SSF of maltodextrins with added maltose, 24 h (Example 1); parameters: species or system Yeast (Deltaferm® AL-18); conditions: SSF 24 h, maltodextrin + 20 g/L maltose, enzyme 187.5 kU per ton
Method: as §1, §2

[5] = SSF of maltodextrins with added maltotriose, 24 h (Example 1); parameters: species or system Yeast (Deltaferm® AL-18); conditions: SSF 24 h, maltodextrin + 20 g/L maltotriose, enzyme 187.5 kU per ton
Method: as §1, §2

[6] = SSF of commercial liquefied starch with added alpha-amylase, panose content (Example 4); parameters: species or system Yeast (Deltaferm® AL-18); conditions: for reduction in panose compared to control / panose detected: after 60 h SSF; for panose detected: liquefied starch with glucoamylase and alpha-amylase, enzyme 187.5 kU per ton; for panose after 72 h: after 72 h SSF
Method: Residual sugars were quantified via HPLC. Samples were taken at the end of the SSF or during SSF at set time points. Samples were centrifuged for 1 min at 17 000 xg and sterile filtered (0.2 μm). The samples were frozen at −80° C. prior to measurements. Residual sugars were determined with a Zorbax NH2 column (Agilent Technologies, Inc., US) on an Agilent 1200 HPLC system.
For SSF, the enzyme product was used as crude Bacillus extract. Acidified liquefied starch from a commercial plant, containing no detectable amounts of panose, isomaltose, isomaltotriose or trehalose, was brought to pH 4.8. SSF medium components (5 g/L yeast extract, 5 g/L peptone, 1 g/L K2HPO4, 0.5 g/L Mg2SO4 in 50 mM citrate buffer, pH 4.8) were added to liquefied starch (300 g/L). The SSF medium containing starch was sterile filtered (0.2 μm). Yeast (Deltaferm® AL-18, WeissBioTech GmbH, Ascheberg, Germany) was grown in YINaC medium (50 g/L dextrose, 5 g/L yeast extract, 5 g/L peptone, 1 g/L K2HIPO4, 0.5 g/L Mg2SO4*7H2O, 2 g/L NH4Cl in 50 mM sodium citrate, pH 4.8) for 2 days at 37° C. and harvested by centrifugation for 15 min at 5100 rpm and 8° C. Pelleted yeast was added to the SSF at a final concentration of 6 g/L. Glucoamylase (Deltazym® GA L-E10, WeissBioTech GmbH, Ascheberg, Germany) was added at 200 g per ton of dry starch equivalent. Alpha-amylase (Fuelzyme®, BASF) was added at 200 g per ton of dry starch equivalent to simulate non-complete removal of alpha-amylase in industrial processes, which is often the cause for increased non-fermentable sugars. The enzyme product Agl1 or Gth was added to a final concentration of 187.5 kU per ton of dry starch equivalent. As control, no oligo-1,6-glucosidase/enzyme product was added. The SSF was performed at 30° C. without stirring or shaking for 72 h.

[7] = Process stability (SSF medium without starch, pH 4.8, 30° C., 72 h); format: physicochemical; conditions: after 72 h at 30° C., pH 4.8, SSF medium without starch
Method: Process stability was determined by incubating the enzymes under process conditions (SSF medium without starch, pH 4.8, 30° C.) for 72 h and measuring the remaining activity.

[8] = Storage stability (50% v/v glycerol, 4° C.); format: physicochemical; conditions: at 4° C., extrapolated from 12 months data
Method: Storage stability was determined by measuring the activity of the enzymes stored in a glass container in a stabilizing formulation (50% v/v glycerol) at 4° C. over a time period of 12 months. […] “Without a loss in activity” is defined as an extrapolated activity of greater than 95% of the initial activity.

Molecule	ethanol concentration increase by % compared to the negative control [1] [%]	ethanol concentration increase compared to the negative control [1]	ethanol concentration increase by % compared to the negative control [2] [%]	ethanol concentration increase compared to the negative control [2]	ethanol concentration increase by % compared to the negative control [3] [%]	ethanol concentration increase compared to the negative control [3]	ethanol concentration increase by % compared to the negative control [4] [%]	ethanol concentration increase compared to the negative control [4]	ethanol concentration increase by % compared to the negative control [5] [%]	ethanol concentration increase compared to the negative control [5]	reduction in panose compared to control [6] [%]	panose detected [6] [g/L]	panose after 72 h [6]	process stability (remaining activity) [7] [%]	storage stability without a loss in activity [8]
B1	226	1.86 percentage points (v/v)	74	0.98 percentage points (v/v)	40	0.48 percentage points (v/v)	1.5	0.03 percentage points (v/v)	1	0.03 percentage points (v/v)	50	2.7	completely hydrolysed	80	18-24 month
B2	31	0.26 percentage points (v/v)			48	0.57 percentage points (v/v)	2.8	0.06 percentage points (v/v)	0	0.00 percentage points (v/v)	57	2.3	completely hydrolysed	80	18-24 month
